In the Human Domainome abundance scans (Beltran et al. 2025):
± gives the uncertainty stated by the source.

B1: COUP transcription factor 1, residues 83 to 159; numbered along this chain, P10589 (parent)
chain: HIECVVCGDKSSGKHYGQFTCEGCKSFFKRSVRRNLTYTCRANRNCPIDQHHRNQCQYCRLKKCLKVGMRREAVQRG

Variants of: B1
Test: abundance fitness (aPCA) (normalised: wild type 0, dead -1); higher = more abundant; growth selection in yeast, the domain comes from the species named
Settings: Homo sapiens

Variant | abundance fitness
T37M | -0.215 ± 0.082
C64T | -0.758 ± 0.11
C64W | -0.675 ± 0.077
C64Y | -0.537 ± 0.12
R33Q | 0.272 ± 0.071
R33K | -0.022 ± 0.079
R33L | 0.109 ± 0.05
R33M | -0.045 ± 0.08
R33T | 0.096 ± 0.068
R33P | -0.771 ± 0.16
E3W | -0.319 ± 0.066
E3T | -0.058 ± 0.078
R30G | -0.079 ± 0.066
L65S | -0.472 ± 0.059
L65D | 0.015 ± 0.055
L65F | -0.039 ± 0.078
L65C | -0.265 ± 0.06
N45M | -0.245 ± 0.38
R34Y | -0.263 ± 0.22
Y58I | -0.866 ± 0.28
Y58D | -0.046 ± 0.059

Variant | abundance fitness
Y16V | -0.151 ± 0.062
Y16K | -0.209 ± 0.18
G68S | -0.593 ± 0.068
D9R | -0.018 ± 0.067
D9H | -0.636 ± 0.27
Q50R | -0.119 ± 0.036
Q50M | -0.088 ± 0.062
G23W | 0.189 ± 0.088
F28W | -0.069 ± 0.058
V32E | -0.072 ± 0.067
V32R | -0.66 ± 0.081
V32C | -0.798 ± 0.2
V32N | -0.196 ± 0.25
K14P | 0.201 ± 0.27
K14D | 0.228 ± 0.31
K14M | 0.016 ± 0.13
K14G | -0.315 ± 0.14
F27I | -0.86 ± 0.44
F27T | -1.1 ± 0.26
C40S | -1.08 ± 0.17
H1V | -0.035 ± 0.15

Variant | abundance fitness
H1Q | 0.121 ± 0.12
M69Y | -0.77 ± 0.16
R70G | -0.152 ± 0.033
R70A | 0.023 ± 0.038
R70Y | -0.323 ± 0.12
R70E | 0.135 ± 0.038
R71H | -0.103 ± 0.084
R71F | 0.016 ± 0.066
C21A | -0.707 ± 0.098
V6P | -0.705 ± 0.19
V6F | -0.581 ± 0.28
V6S | -0.819 ± 0.14
S12P | -0.094 ± 0.059
S12C | -0.578 ± 0.14
S12G | 0.021 ± 0.048
Q55L | -0.059 ± 0.045
Q55Y | -0.039 ± 0.062
Q55M | -0.126 ± 0.072
Q55E | 0.19 ± 0.053
A42R | -0.111 ± 0.054
S26E | 0.144 ± 0.079

Variant | abundance fitness
F19M | -0.149 ± 0.1
F19G | -0.53 ± 0.071
I48N | -0.151 ± 0.088
I48P | -0.788 ± 0.13
I48Q | -0.125 ± 0.065
K29I | -0.22 ± 0.2
S31A | 0.036 ± 0.064
S31R | -0.955 ± 0.12
V67S | -0.117 ± 0.045
V67G | -0.26 ± 0.039
V67Y | -0.18 ± 0.093
C56Q | -0.82 ± 0.28
C56P | -1 ± 0.27
C56V | -0.758 ± 0.093
C56K | -0.926 ± 0.29
K63D | -0.874 ± 0.14
K63Y | -0.277 ± 0.097
H15M | 0.548 ± 0.39
H15G | -0.101 ± 0.093
H15C | -0.362 ± 0.25
C46M | -0.654 ± 0.15
